Test results reported in publication PMC12661447, “Cyanophycinase is required for heterotrophy in cyanobacteria” (The Journal of Biological Chemistry, 2025).

Target: T1, cyanophycinase (CphB) (Synechocystis sp. PCC 6803 (endogenous …, UniProt P73832 1-271))
T1 sequence (looked up): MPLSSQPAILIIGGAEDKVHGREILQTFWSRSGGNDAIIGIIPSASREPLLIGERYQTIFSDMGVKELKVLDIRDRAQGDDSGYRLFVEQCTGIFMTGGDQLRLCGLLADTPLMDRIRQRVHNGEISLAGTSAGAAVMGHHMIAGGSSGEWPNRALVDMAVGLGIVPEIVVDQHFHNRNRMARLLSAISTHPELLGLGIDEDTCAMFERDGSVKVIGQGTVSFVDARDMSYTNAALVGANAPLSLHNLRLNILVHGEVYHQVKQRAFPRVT
Experiment: cell-based or functional assay

B1: FLAG-tagged variant of ArgD (acetylornithine aminotransferase) (enzyme, Synechocystis sp. PCC 6803, UniProt P73133 1-429, looked up)
chain: MTYSPVVESVEAQAFAVTDLSPAAEFKTADFDTYVMNTYGRFPIAIARGQGSTLWDTEGKSYLDFVAGIATCTLGHAHPALVRAVSDQIQKLHHVSNLYYIPEQGELAKWIVEHSCADRVFFCNSGAEANEAAIKLVRKYAHTVLDFLEQPVILTAKASFHGRTLATITATGQPKYQQYFDPLVPGFDYVPYNDIRSLENKVADLDEGNSRVAAIFLEPLQGEGGVRPGDLAYFKRVREICDQNDILLVFDEVQVGVGRTGKLWGYEHLGVEPDIFTSAKGLAGGVPIGAMMCKKFCDVFEPGNHASTFGGNPLACAAGLAVLKTIEGDRLLDNVQARGEQLRSGLAEIKNQYPTLFTEVRGWGLINGLEISAESSLTSVEIVKAAMEQGLLLAPAGPKVLRFVPPLVVTEAEIAQAVEILRQAIATLV
in vitro activity of recombinant CphB-His (2 μM; degradation of cyanophycin, β-Asp-Arg dipeptide at 2 min by LC-HRMS) with recombinant ArgD-His added in a 1:1 ratio against without ArgD (BSA control): ~2 fold
